Earlier results in PMC4030972.

Biological target: cholera toxin A1 subunit CtxA1 (Vibrio cholerae) (UniProt P01555)
Sequence of UniProt P01555 (P01555 19-212): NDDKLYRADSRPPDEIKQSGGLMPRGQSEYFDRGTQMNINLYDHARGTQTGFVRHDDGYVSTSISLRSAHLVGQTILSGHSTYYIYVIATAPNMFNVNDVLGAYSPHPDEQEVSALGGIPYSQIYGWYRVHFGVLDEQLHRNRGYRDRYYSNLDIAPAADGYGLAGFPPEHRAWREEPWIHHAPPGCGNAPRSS

Substance: Hsp90 (from UniProt P08238)
- Kd: 7 nM
